The text below walks through data of PMC7000413, “CDX-301: a novel medical countermeasure for hematopoietic acute radiation syndrome in mice” (Scientific Reports, 2020).

The data set concerns the molecule itself. Description: SEC; size exclusion chromatography of purified CDX-301; apparent molecular weight approximately 44,000 Daltons; conditions not given. (Size exclusion chromatography separates by hydrodynamic size, large species first.)

B1: CDX-301, soluble recombinant human Fms-related tyrosine kinase 3 ligand (Flt3L) (ligand)
chain: TQDCSFQHSPISSDFAVKIRELSDYLLQDYPVTVASNLQDEELCGGLWRLVLAQRWMERLKTVAGSKMQGLLERVNTEIHFVTKCAFQPPPSCLRFVQTNISRLLQETSEQLVALKPWITRQNFSRCLELQCQPDSSTLPPPWSPRPLEATAP
modifications: glycoprotein with 2 potential N-linked (N100, N123) and 5 potential O-linked (S136, S137, T138, S144, T151) glycosylation sites; 3 intramolecular disulfide bonds
notes: human Flt3 ligand, the 153 N-terminal amino acids of the extracellular domain; 3 C-terminal residues of the extracellular domain, the transmembrane domain and the cytoplasmic domain eliminated; mature, secreted protein of 153 amino acids. numbers count on: the mature protein; Non-covalent homodimer; also called rhuFlt3L; Flt3 Ligand; source: manufactured under cGMPs by Celldex Therapeutics
As a reminder, the stoichiometry N is a count of units in the complex or per binding partner. Regarding B1, the “stoichiometry N” value was determined as 2.
